The assay addresses AbrBC, C-terminal multimerization domain of AbrB from Bacillus subtilis (residues 52-94) (Bacillus subtilis). Kind of assay: SEC. A general note: SEC sorts molecules by how far they enter the pores of the column.

This is an account of results in article PMC4252516.

For the substance “AbrBC, C-terminal multimerization domain of AbrB from Bacillus subtilis (residues 52-94) (domain or fragment)”, the stoichiometry N (in general, the number of molecules, sites or subunits per partner or assembly) was 2.
